Measured values from doi:10.1101/2020.12.02.409011 (bioRxiv, 2020).

Molecular target: the molecule itself
Assay: crystal structure

B1: Bacillus subtilis PurR (purine synthesis transcription regulator), untagged (natural protein)
chain: MKFRRSGRLVDLTNYLLTHPHELIPLTFFSERYESAKSSISEDLTIIKQTFEQQGIGTLLTVPGAAGGVKYIPKMKQAEAEEFVQTLGQSLANPERILPGGYVYLTDILGKPSVLSKVGKLFASVFAEREIDVVMTVATKGIPLAYAAASYLNVPVVIVRKDNKVTEGSTVSINYVSGSSNRIQTMSLAKRSMKTGSNVLIIDDFMKAGGTINGMINLLDEFNANVAGIGVLVEAEGVDERLVDEYMSLLTLSTINMKEKSIEIQNGNFLRFFKDNLLKNGETES
B1: binds.
